Measured values from patent US20250270289A1, “SEQUENCE-DEFINED POLYMERS WITH ONE OR MORE AZIDES, METHODS OF MAKING, AND METHODS OF USE THEREOF” (Yale University, priority 2021, published 2025).

Assays:
[1] = Half-life from blood samples by GFP ELISA after injection; type: in vivo, C57BL/6 mice; details: intravenous, 50 μg, no ISAz treatment
Procedure: The half-lives of ELP-GFP constructs were calculated from concentrations measured from blood samples collected over the course of a week. The experiments were initiated by injecting 120 μL of 10 μM ELP-GFP intravenously or subcutaneously. At indicated times, 2 μL blood was collected from a tail puncture, and diluted 1:25 in heparin tubes. The blood sample was vortexed briefly and cells were pelleted by centrifugation (2 min at 14,000 g). The soluble fraction was collected and frozen at −20° C. until analysis. ELP-GFP concentrations of the samples were determined using a GFP ELISA Kit (Abcam, cat. #ab171581). The samples were diluted in PBS as needed, to ensure that the concentration fell within the quantifiable range of the standard curve.
Next, experiments were designed to determine if the tighter binding affinity translates into prolonged half-life in C57BL/6J mice. A total of 50 μg of each protein variant (10 μM in PBS) was injected intravenously, and blood was collected after 1, 4, 8, 16 and 24 hours, followed by daily collections through seven days. The blood levels of ELP(nFA)-GFP constructs were measured using a GFP-specific ELISA, and their pharmacokinetic profiles were calculated (see FIGS. 7F and 7G).

[2] = molecular target: mouse serum albumin (MSA) (Mus musculus, UniProt P07724); experiment: Surface plasmon resonance, steady-state affinity; details: not ISAz treated; mean (s.d.) of 4-8 experiments; n.d. = no binding detected
Sequence of mouse serum albumin (MSA) (P07724 25-608): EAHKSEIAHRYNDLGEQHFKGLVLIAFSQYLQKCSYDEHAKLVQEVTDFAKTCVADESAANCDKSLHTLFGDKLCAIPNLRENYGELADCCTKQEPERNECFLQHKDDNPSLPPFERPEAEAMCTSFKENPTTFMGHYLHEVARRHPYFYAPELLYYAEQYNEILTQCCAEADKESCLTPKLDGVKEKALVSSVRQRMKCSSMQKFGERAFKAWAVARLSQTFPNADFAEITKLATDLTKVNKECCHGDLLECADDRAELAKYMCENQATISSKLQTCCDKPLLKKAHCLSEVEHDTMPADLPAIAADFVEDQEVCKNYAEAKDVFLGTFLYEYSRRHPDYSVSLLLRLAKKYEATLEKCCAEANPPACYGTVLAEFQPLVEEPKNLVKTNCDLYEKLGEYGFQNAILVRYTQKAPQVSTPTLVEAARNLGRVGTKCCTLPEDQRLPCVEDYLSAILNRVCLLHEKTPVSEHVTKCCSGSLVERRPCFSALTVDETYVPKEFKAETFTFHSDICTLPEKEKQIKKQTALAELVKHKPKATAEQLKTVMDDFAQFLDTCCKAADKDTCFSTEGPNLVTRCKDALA

B1: ELP(0FA)GFP: ELP-GFP fusion, 10 pentadecapeptide repeats with tyrosine at the guest residue, no conjugated fatty acids (SEQ ID NO:33) (protein)
chain: MSKGPGVPGGGVPGAGVPGYGVPGGGVPGAGVPGYGVPGGGVPGAGVPGYGVPGGGVPGAGVPGYGVPGGGVPGAGVPGYGVPGGGVPGAGVPGYGVPGGGVPGAGVPGYGVPGGGVPGAGVPGYGVPGGGVPGAGVPGYGVPGGGVPGAGVPGYGPGGGG
- half-life [1]: 1.7 h
- KD MSA [2]: no detectable binding
